Measured values taken from CN111606996A.

Target: 4D5 CAR on NK92-4D5-Canada cells
Assay: flow cytometry on NK92-4D5-Canada cells, 2μg 5D1 + BV421 goat anti-mouse

阳性细胞数在总细胞中占比: 60.2%
B1: 靶向4D5的鼠源单克隆抗体5D1 (antibody, V domains shown)
VH: QVQLEQSGAEFVRPGALVRLSCKASGFNIKDYYIHWVKQRPEQGLEWIGWIYPENDDTIYDPKFQGKASLTADTSSNTAYLQLSSLTSEDSAVYFCVRSGSDSSFDYWGQGTTLTVSS
VL: DIVMTQSTASLAVSLGQRATISCRASESVDSYDNSFMHWFQQKPGQPPKLLIYLASNLESGVPARFSGSGSRTDFTLTIDPVEADDAATYYCQQNNEDPFTFGSGTKLEIKR
